From patent publication US20090018067A1 (published 2009)

Assays:
Assay in all cases: soluble HLA class II competition assay against a biotinylated control peptide, affinity grade
[1] = target: T1, HLA DRB1*0701 (purified recombinant soluble HLA class II molecule) (human)
T1 construct: also called DRB*0701

[2] = target: T2, HLA DRB1*0401 (purified recombinant soluble HLA class II molecule) (human)
T2 construct: also called DRB*0401

[3] = target: T3, HLA DRB1*0101 (purified recombinant soluble HLA class II molecule) (human)
T3 construct: also called DRB*0101

[4] = target: HLA DRB1*1501 (purified recombinant soluble HLA class II molecule) (human)

Measured: binding result

VDTSKNQFSLRLSSVTAADTA (Synthetic Fmoc peptide) [Tregitope-074]
binds: all assays above
